The results in this text go back to the nanobody polyreactivity screen of Harvey et al. (2022).

The nature of the series: yeast display, Sf9 membrane polyspecificity reagent, FACS + sequencing; frameworks hold sequencing errors. In a few lines:
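Nanobodies from a synthetic yeast display library (Saccharomyces cerevisiae BJ5465), induced 36–48 hours with galactose, were stained 1 hour at 4 °C with 10% biotinylated, detergent-solubilized Sf9 membrane reagent, enriched on streptavidin microbeads, then FACS-sorted. Anti-HA (expression) and streptavidin (reagent binding) fluorescence set low and high (top ~1%) gates. Polyreactivity labels come from the gate of origin. Genes were colony-PCR amplified, MiSeq 2 × 250 sequenced and filtered by CDR length.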
Consider “QVQLVESGGGLVQAGGSLRLSCAASGRISGWNAMGWYRQAPGKERELVAASTWSDGSTYYADSVKGRFTISRDNAKNTVYLQMNSLKPEDTAVYYCAAEYGWYAGDPYYGYDYYWGQGTQVTVSS”, for which the “polyreactivity (PSR sort gate)” value is “high polyreactivity”.
As for “QVQLVESGGGLVQAGGSLRLSCAASGRISIIYAMGWYRQAPGKERELVARISGSGGSTNYADSVKGRFTISRDNAKNTVYLQMISLKPEDTAVYYCAAVPWRIHKYYYWGQGTQVTVSS”, the “polyreactivity (PSR sort gate)” value is reported as “high polyreactivity”.
Take “QVQLVESGGGLVQAGGSLRLSCAASGRISKRNVMGWYRQAPGKERELVAGITSTGSTSYADSVKGRFTISRDNAKNTVYLQMNSLKPEDTAVYYCAARGQATYNWGQGTQVTVSS”: the “polyreactivity (PSR sort gate)” value is “high polyreactivity”.
In the case of “QVQLVESGGGLVQAGGSLRLSCAASGRISPKNAMGWNTQAPGKERELVATIRKIGGRTYYADSVKGRFTISRDNAKNTVYLQMNSLKPEDTAVYYCATDFAPSYYPDRFDYWGQGTQVTVSS”, the “polyreactivity (PSR sort gate)” value is “low polyreactivity”.
For “QVQLVESGGGLVQAGGSLRLSCAASGRISRGYAMGWYRQAPGKERELVAAIDSDGDTNYADSVKGRFTISRDNAKNTVYLQMNRLKAEDTAVYYCNKDGAYKTAYKRWTLYDYWGQGTQVTVSS”, the “polyreactivity (PSR sort gate)” value is listed as “low polyreactivity”.
For “QVQLVESGGGLVQAGGSLRLSCAASGRISRLYAMGWYRQAPGKERELVAAITDSGGSTYYADSVKGRFTISRDNAKNTVYLHMNSLKPEDTAVYDCAATWSNWYREYYYWGQGTQVTVSS”, the “polyreactivity (PSR sort gate)” value is on record as “high polyreactivity”.
As for “QVQLVESGGGLVQAGGSLRLSCAASGRISSYYVMGWYRQAPGKERELVAAITGGDSTNYADSVKGRFTISRDNAKNTVYLQMNSLKPEDTAVYYCAAKAYSYSRWGYYGYYYWGQGSQVTVSS”, the “polyreactivity (PSR sort gate)” value is given as “high polyreactivity”.
Turning to “QVQLVESGGGLVQAGGSLRLSCAASGRISTAYAMGWYRQAPGKERELVAAISSGTSTTYADSVKGRFTISRDNAKNTVYLQMNSLQPEDTAVYYCNADSWYGHYDSWGQGTQVTESS”, the “polyreactivity (PSR sort gate)” value is “low polyreactivity”.
On to “QVQLVESGGGLVQAGGSLRLSCAASGRISTYTMGWYRQAPGKERELVATISTDASTNYADSVKGRFTISRDNAKNTVYLQINSLKPEDTAVYYCAAVIVNQYYDYWGQGTQVTVSS”, for which the “polyreactivity (PSR sort gate)” value is reported as “low polyreactivity”.
With “QVQLVESGGGLVQAGGSLRLSCAASGRISVFNAMGWYRHAPGKERELVAAITSGGSTNYADSVKGRFTISRDNAKNTVYLQMNSLKPEDTAVYYCNADVYHSHEPHYDYWGQGTQVTVSS”, the “polyreactivity (PSR sort gate)” value is given as “low polyreactivity”.
The entry for “QVQLVESGGGLVQAGGSLRLSCAASGRISVFNAMGWYRQAPGKERELVATITDGGSTYYADSVKGRFTISRDNAKNSVYLQMNSLKPEDTAVYYCAKKQVTTDVSSETFVLEMDYLGQGTQVTVSS” is “low polyreactivity”.
Regarding “QVQLVESGGGLVQAGGSLRLSCAASGRISVFYTMGWYRQAPGKERELVAVIRTSGGRTNYADSVKGRFTISRDNAKNTVYLQMNSLKPEDTAVYYCAARVVRYGYKYYYWGQGTQVTVSS”, the “polyreactivity (PSR sort gate)” value is on record as “low polyreactivity”.
The entry for “QVQLVESGGGLVQAGGSLRLSCAASGRISWGYAMGWYRQAPGKERELVAVINFNGGRTYYADSVKGRFTISRDNAKNTVYLQMNSLKAEDTAVYYCAADSGYEYDYWGQGTQVTVSS” is “low polyreactivity”; for “QVQLVESGGGLVQAGGSLRLSCAASGRISYANSMGWYRQAPGKESELVASITYSAGSTYADSVKGRFTISRDNAKNTVYLQMNSLKPEDTAVYYCAKRPSQHYRSYLMDYWGQGTQVTVSS” it is “low polyreactivity”.
As for “QVQLVESGGGLVQAGGSLRLSCAASGRISYLYTMGWYRQAPGKERELVAAIRWRDGSTYYADSVKGRFTISRDNAKNTVYLQMNSLKPEDTAVYYCAKRFAGGEYGYYWGQGTQVTVSS”, the “polyreactivity (PSR sort gate)” value is “low polyreactivity”.
On to “QVQLVESGGGLVQAGGSLRLSCAASGRISYYYLGWYRQAPGKERELVAAISWNGGRTYYADSVKGRFTISRDNAKNTVYLQMNSLKPEDTAVYYCAAKTGYYPYGYWGQGTQVTVSS”, for which the “polyreactivity (PSR sort gate)” value is listed as “high polyreactivity”.
The entry for “QVQLVESGGGLVQAGGSLRLSCAASGRIVGRYVMGWYRQARGKERELVAAITSGGSTYYADSVKGRFTISRDNAKNTVYLQMNSLKPEDTAVYYCAAKWRSPRYYLYGYWGQGTQVTVSS” is “high polyreactivity”; for “QVQLVESGGGLVQAGGSLRLSCAASGRIVSLNAMGWNRQAPGKERELVAGIRKRGRSTYYADSVKGRFTISRDNAKNTVYLQMNSLKPEDTAVYYCAAQPALTYRFYYWGQGTQVTVSS” it is “high polyreactivity”.
For the sequence “QVQLVESGGGLVQAGGSLRLSCAASGRIVVPYAMGWYRQAPGKERELVAAITSGGSTYYADSVKGRFTISRDNAKNTVYLQMNSLKPEDTAVYYCAATSRRSSETYYFWGQGTQVTVSS”, the “polyreactivity (PSR sort gate)” value is “high polyreactivity”.
In the case of “QVQLVESGGGLVQAGGSLRLSCAASGRIWSNAMGWYRQAPGKERELVAVISSRGGSTYYADSVKGRFTISRDNAKNTVYFQMNSLKPEDTAVYYCAARQRAKYNYWGQGTQVTVSS”, the “polyreactivity (PSR sort gate)” value is “high polyreactivity”.
The entry for “QVQLVESGGGLVQAGGSLRLSCAASGRIYAMGWYRQAPGKERELVAAISRGGSTYYADSVKGRFTISRDNAKNTVYLQKNSLKPEDTAVYYCNRKSYRLRWKVRGQYLLGYDWGQGTQVTVSS” is “high polyreactivity”.
For “QVQLVESGGGLVQAGGSLRLSCAASGRIYAMGWYRQAPGKERELVAAISYSGGSTYYADSVKGRFTISRDNAKNTVYLQMNSLKPEDTAVYYCAAVIYRGYYYWGQGTQVTVSS”, the “polyreactivity (PSR sort gate)” value is “high polyreactivity”.
On to “QVQLVESGGGLVQAGGSLRLSCAASGRIYGAYAMGWYRQAPGKEMEMVAAITSAGSTLYADSVKGRFTISRDNAMNTVYLQMNSLNPEDTAVYYCAADGIARAYVLFDAYDFLYDYWGQGTQVTVSS”, for which the “polyreactivity (PSR sort gate)” value is “low polyreactivity”.
Regarding “QVQLVESGGGLVQAGGSLRLSCAASGRIYLRYTMGWYRQAPGKERELVAAISARTTGTYYADSVKGRFTISRDNAKNTVYLQMKSLKPEDTAVYYCASKSKLSRDLYSWGQGTQVTVSS”, the “polyreactivity (PSR sort gate)” value is reported as “low polyreactivity”.
Turning to “QVQLVESGGGLVQAGGSLRLSCAASGRIYRNAMGWYRPAPGKERELVAAISSRGASTYYADSVKGRFTITRDNAKNTVYLQMNSLKPEDTAVYYCAARTSSSSGYYAREYWGQGTQVTVSS”, the “polyreactivity (PSR sort gate)” value is recorded as “high polyreactivity”.
Turning to “QVQLVESGGGLVQAGGSLRLSCAASGRIYTWNAMGWYRQAPGKERDLVASISRSGTSTYYADSVKGRNTISRDNALTTVYLQMNSLKPEDTAVYYCAAKTSRGDRTQVEYWGQGTQVTVSS”, the “polyreactivity (PSR sort gate)” value is reported as “high polyreactivity”.
Turning to “QVQLVESGGGLVQAGGSLRLSCAASGRIYVKNAMGWYRPAPGKERELVAAINWRGTSTYYADSVKGRFTISRDNAKNTVYLQMKSLKPEDTAVYYCNRVLGYPYGVDYWGQGTQVTVSS”, the “polyreactivity (PSR sort gate)” value is reported as “high polyreactivity”.
Regarding “QVQLVESGGGLVQAGGSLRLSCAASGRIYWWYAMGGSRQEPGKERELVAGISWSGGSTYYADSVKGRFTISRDNAKNTVYLQMNSLKPEDSAVYYCNAQYASGRSYFFYWHRFDYGGQGTQVTVSS”, the “polyreactivity (PSR sort gate)” value is reported as “high polyreactivity”.
With “QVQLVESGGGLVQAGGSLRLSCAASGRIYYNAMGWYRQAPGKEGELVAAISGSGTRTYYADSVKGRFTISRDNAKTTVYLQMNSQKPEDTAVYYCARYYSHYSTYDYVRYGYWGQGTQVTVSS”, the “polyreactivity (PSR sort gate)” value is “high polyreactivity”.
For “QVQLVESGGGLVQAGGSLRLSCAASGRIYYYAMGWYRQAPGKERELVAAISRGGSTKYADSVKGRFTISRDNAKNTVYLQMNSLKPEETAVYYCAAGGTVYRYDYWGQGTQVTVSS”, the “polyreactivity (PSR sort gate)” value is “low polyreactivity”.
With “QVQLVESGGGLVQAGGSLRLSCAASGRLFDSNARGWYSQAPGKERELVAAISSGASTYYADSVKGRFTISRDNAKNTVYLQMNSLKPEDTAVYYCAVRLRYAYRARGNYWGQGTQVTVSS”, the “polyreactivity (PSR sort gate)” value is listed as “low polyreactivity”.
The entry for “QVQLVESGGGLVQAGGSLRLSCAASGRLFKSYAMGWYRQAPGKEREFVAAISTRSSSTYYADSVKGLFTISRDNAKNTVYLQMNSLKPEDTAVYYCAATPRRVSPYGVPYGDVYWGQGTQVTVSS” is “low polyreactivity”; for “QVQLVESGGGLVQAGGSLRLSCAASGRLFPYYDMGWYRQAPGKERELVAAITGNGGSTYYADSVKGRFTISRDNAKNTVYLQMNSLKPEDTAVYYCAVDPYYYGEDYWGQGTQVTVSS” it is “low polyreactivity”.
On to “QVQLVESGGGLVQAGGSLRLSCAASGRLFSRNVMGWSRQAPGKERELVAAISSSGSTYADSVKGRFTISRDNEKNTVYLQMNSLKPEDTAVSYCAAVIYLWGQGTQVTVSS”, for which the “polyreactivity (PSR sort gate)” value is listed as “high polyreactivity”.
The entry for “QVQLVESGGGLVQAGGSLRLSCAASGRLLPIYAMGWYRQAAGKERELVATISWTSDSTYYADSVKGRFTISRDNAKNTVYLQMNSLKPEDTAFYYCAREYTYNYASTVIYDHWGQGTQVTVSS” is “low polyreactivity”; for “QVQLVESGGGLVQAGGSLRLSCAASGRMFRWYAMGWYRPAPGKERELVAAITSGGSTNYADSVKGRFTISRDNAKNTVYLKMNSLKPEDTAVYYCAARWKFPSSFYYWGQGTQVTVSS” it is “high polyreactivity”; for “QVQLVESGGGLVQAGGSLRLSCAASGRMFWSNAMGWYIQAPGKERELFAAIRNTGSTNYADSVKGRFTISRDNAKNTVYLQMNSLKPEDTAVYYCAAYKGSSKYDYWGQGTQVTVSS” it is “high polyreactivity”.
Take “QVQLVESGGGLVQAGGSLRLSCAASGRNFENNAMGWYRQAPGKERELVAAITSSGGRTYYADSVKGRFTISRDNAKNTVYLQMNSLKPEDTAVYYCAADNFAPEFYYWGQGTQVTVSS”: the “polyreactivity (PSR sort gate)” value is listed as “low polyreactivity”.
For the sequence “QVQLVESGGGLVQAGGSLRLSCAASGRNFGNYAMGGYRQAPGKERELVAAISNGGSTNYADSVKGRVTISRDNAKNTVYFQMNSLKPEDTAVYYCNADQWAVIWGYLVLDFYYWGQGTQVPVSS”, the “polyreactivity (PSR sort gate)” value is listed as “low polyreactivity”.
For the sequence “QVQLVESGGGLVQAGGSLRLSCAASGRNFIDYMGWYRQAPGKERELVAAIDSGASTYYADSVKGRFTISRDNAKNTVYLQMNSLNPEDTAVYYCAADVVYDYGGMDYWGQGTLVTVSS”, the “polyreactivity (PSR sort gate)” value is reported as “low polyreactivity”.
In the case of “QVQLVESGGGLVQAGGSLRLSCAASGRNFIYNAMGWYRQAPGKERELVAAISRSGGSTNYADSVKGRFTISRDNAKNTVYLQMNSLKPEDTAVYYCAVDSGRYYYYLGFSTRYYWGQGTQVTVSS”, the “polyreactivity (PSR sort gate)” value is on record as “high polyreactivity”.
